In patent US20250076311A1 (Chugai, published 2025):
Numbering of substitutions follows the chain as printed.

T1: soluble mouse FcγRII, His-tagged (mouse, UniProt P08101 30-210, limits assumed)
T1 construct: Captured on the chip through an anti-His antibody
T1 sequence (looked up): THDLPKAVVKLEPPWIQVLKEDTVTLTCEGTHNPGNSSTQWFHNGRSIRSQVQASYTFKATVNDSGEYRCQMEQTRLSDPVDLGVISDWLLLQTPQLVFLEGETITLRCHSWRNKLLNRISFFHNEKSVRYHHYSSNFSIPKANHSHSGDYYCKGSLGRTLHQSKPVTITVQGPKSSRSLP

T2: human FcγRIIb constitutively expressed on MDCK cells (human, UniProt P31994 43-310)
T2 sequence (looked up): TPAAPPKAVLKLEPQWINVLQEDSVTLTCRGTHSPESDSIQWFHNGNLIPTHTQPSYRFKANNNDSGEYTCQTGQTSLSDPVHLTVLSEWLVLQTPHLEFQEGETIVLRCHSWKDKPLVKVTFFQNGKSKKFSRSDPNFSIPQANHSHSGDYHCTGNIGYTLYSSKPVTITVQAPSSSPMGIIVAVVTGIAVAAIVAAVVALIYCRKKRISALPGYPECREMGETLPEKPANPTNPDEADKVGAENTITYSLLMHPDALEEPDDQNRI

B1: M103205H795-P1536m/M103202L889-SK1 (antibody, human IgG1, kappa, name in EU numbering)
heavy: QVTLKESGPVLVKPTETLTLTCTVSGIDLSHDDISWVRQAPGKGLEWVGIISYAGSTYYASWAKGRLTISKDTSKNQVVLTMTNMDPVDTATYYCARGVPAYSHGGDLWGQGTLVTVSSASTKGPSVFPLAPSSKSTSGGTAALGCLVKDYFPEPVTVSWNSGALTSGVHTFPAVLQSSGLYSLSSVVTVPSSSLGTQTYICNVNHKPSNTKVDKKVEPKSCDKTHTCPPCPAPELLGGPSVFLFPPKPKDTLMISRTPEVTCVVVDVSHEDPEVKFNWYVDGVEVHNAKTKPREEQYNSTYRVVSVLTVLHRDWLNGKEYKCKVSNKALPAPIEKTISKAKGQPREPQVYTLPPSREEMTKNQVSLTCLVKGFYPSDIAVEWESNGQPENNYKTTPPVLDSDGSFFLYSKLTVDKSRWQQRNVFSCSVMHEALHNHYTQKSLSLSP
light: DIVMTQSPATLSLSPGERATLSCTSSQSVYHANWLSWFQQKPGQPPKLLIYWASTLAYGVPSRFSGSGSGTDFTLTISSLQPEDAATYYCAGGYGGGRYAFGQGTKVEIKRTVAAPSVFIFPPSDEQLKSGTASVVCLLNNFYPREAKVQWKVDNALQSGNSQESVTEQDSKDSTYSLSSTLTLSKADYEKHKVYACEVTHQGLSSPVTKSFNRGEC
notes: copies: 2 + 2
B2: M103205H795-P1547m/M103202L889-SK1 (antibody, human IgG1, kappa, name in EU numbering)
heavy: QVTLKESGPVLVKPTETLTLTCTVSGIDLSHDDISWVRQAPGKGLEWVGIISYAGSTYYASWAKGRLTISKDTSKNQVVLTMTNMDPVDTATYYCARGVPAYSHGGDLWGQGTLVTVSSASTKGPSVFPLAPSSKSTSGGTAALGCLVKDYFPEPVTVSWNSGALTSGVHTFPAVLQSSGLYSLSSVVTVPSSSLGTQTYICNVNHKPSNTKVDKKVEPKSCDKTHTCPPCPAPELLGGPSVFLFPPKPKDTLMISRTPEVTCVVVDVSHEDPEVKFNWYVDGVEVHNAKTKPREEQYNSTYRVVSVLTVLHRDWLNGKEYKCKVSNKALPAPIEKTISKAKGQPREPQVYTLPPSREEMTKNQVSLTCLVKGFYPSDIAVEWESNGQPENNYKTTPPVLDSDKSFFLYSKLTVKKSRWQQGNVFSCSVMHEALHNHYTQKSLSLSP
light: B1 light
notes: copies: 2 + 2
B3: M103205H795-P1548m/M103202L889-SK1 (antibody, human IgG1, kappa, name in EU numbering)
heavy: B2 heavy with G387R, D403R, K404G, K415D
light: B1 light
notes: copies: 2 + 2
B4: MS1032LO06-P1378m (antibody, human IgG1, kappa, name in EU numbering)
heavy: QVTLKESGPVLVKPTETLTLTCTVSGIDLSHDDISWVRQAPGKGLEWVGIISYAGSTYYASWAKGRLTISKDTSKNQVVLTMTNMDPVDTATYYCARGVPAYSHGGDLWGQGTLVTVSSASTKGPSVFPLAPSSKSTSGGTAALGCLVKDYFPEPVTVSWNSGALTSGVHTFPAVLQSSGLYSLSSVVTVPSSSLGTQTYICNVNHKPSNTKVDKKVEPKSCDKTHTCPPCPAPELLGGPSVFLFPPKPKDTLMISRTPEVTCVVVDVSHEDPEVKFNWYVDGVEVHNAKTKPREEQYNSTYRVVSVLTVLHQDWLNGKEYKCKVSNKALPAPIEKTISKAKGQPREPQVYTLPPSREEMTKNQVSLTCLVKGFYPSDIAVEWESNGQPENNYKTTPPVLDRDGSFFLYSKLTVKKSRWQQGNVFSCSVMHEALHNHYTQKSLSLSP
light: B1 light
notes: also called M103205H795-P1378m; copies: 2 + 2
B5: M103205H795-P1546m/M103202L889-SK1 (antibody, human IgG1, kappa, name in EU numbering)
heavy: B2 heavy with K404R
light: B1 light
notes: copies: 2 + 2
B6: M103205H795-P1545m/M103202L889-SK1 (antibody, human IgG1, kappa, name in EU numbering)
heavy: B2 heavy with D403K, K404G
light: B1 light
notes: copies: 2 + 2
B7: M103205H795-P1539m/M103202L889-SK1 (antibody, human IgG1, kappa, name in EU numbering)
heavy: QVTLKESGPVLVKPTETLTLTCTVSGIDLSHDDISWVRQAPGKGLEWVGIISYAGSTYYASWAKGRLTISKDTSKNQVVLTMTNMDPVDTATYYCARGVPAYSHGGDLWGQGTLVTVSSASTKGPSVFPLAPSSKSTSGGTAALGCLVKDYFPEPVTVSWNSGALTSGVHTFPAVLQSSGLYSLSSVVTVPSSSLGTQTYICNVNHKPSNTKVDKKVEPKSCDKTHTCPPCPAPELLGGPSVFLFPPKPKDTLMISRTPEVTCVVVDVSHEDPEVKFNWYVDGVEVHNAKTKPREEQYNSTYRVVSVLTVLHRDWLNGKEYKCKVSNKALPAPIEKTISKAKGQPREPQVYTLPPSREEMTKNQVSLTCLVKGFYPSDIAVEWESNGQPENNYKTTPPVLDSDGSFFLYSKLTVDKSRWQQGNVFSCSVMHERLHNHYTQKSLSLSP
light: B1 light
notes: copies: 2 + 2
B8: M103205H795-P1543m/M103202L889-SK1 (antibody, human IgG1, kappa, name in EU numbering)
heavy: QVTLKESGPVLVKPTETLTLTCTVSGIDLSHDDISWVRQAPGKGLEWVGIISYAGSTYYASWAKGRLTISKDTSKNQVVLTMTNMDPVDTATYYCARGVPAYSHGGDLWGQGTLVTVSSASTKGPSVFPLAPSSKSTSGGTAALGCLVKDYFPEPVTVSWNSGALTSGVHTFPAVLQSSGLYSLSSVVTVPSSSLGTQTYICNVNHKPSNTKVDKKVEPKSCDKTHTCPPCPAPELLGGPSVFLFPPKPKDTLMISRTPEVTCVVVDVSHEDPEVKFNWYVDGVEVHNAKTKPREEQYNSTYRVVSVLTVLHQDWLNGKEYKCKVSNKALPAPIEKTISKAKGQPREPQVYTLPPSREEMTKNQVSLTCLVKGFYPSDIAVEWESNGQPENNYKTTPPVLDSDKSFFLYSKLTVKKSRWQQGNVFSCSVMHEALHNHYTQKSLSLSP
light: B1 light
notes: copies: 2 + 2
B9: M103205H795-P1549m/M103202L889-SK1 (antibody, human IgG1, kappa, name in EU numbering)
heavy: B2 heavy with G387R, K404R, K415D
light: B1 light
notes: copies: 2 + 2
B10: M103205H795-P1537m/M103202L889-SK1 (antibody, human IgG1, kappa, name in EU numbering)
heavy: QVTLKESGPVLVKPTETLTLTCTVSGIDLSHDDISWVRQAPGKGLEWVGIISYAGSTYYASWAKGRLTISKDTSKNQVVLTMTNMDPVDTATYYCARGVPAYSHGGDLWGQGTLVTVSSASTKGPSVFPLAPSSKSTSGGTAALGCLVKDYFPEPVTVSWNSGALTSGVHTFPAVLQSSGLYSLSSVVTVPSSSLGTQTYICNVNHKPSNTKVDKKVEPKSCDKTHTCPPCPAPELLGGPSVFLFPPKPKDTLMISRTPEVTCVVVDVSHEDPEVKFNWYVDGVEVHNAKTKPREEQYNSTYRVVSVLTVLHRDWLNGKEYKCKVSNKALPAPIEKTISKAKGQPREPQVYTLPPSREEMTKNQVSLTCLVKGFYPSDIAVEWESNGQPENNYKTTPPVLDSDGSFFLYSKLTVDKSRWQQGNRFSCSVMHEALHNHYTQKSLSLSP
light: B1 light
notes: copies: 2 + 2
B11: M103205H795-SG141/M103202L889-SK1 (antibody, human IgG1, kappa, name in EU numbering)
heavy: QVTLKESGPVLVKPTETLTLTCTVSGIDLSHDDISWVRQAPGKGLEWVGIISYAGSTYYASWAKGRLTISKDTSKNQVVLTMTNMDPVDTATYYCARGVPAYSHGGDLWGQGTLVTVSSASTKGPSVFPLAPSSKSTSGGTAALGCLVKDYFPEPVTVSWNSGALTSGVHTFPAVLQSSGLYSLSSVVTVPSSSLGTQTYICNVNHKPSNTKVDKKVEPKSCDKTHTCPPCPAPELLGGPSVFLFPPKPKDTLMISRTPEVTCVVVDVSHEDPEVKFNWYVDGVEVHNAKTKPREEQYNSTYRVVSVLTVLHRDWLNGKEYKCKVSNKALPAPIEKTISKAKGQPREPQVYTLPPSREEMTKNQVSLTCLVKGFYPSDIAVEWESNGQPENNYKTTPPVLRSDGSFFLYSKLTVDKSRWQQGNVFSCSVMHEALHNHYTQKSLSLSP
light: B1 light
notes: copies: 2 + 2
B12: M103205H795-P1540m/M103202L889-SK1 (antibody, human IgG1, kappa, name in EU numbering)
heavy: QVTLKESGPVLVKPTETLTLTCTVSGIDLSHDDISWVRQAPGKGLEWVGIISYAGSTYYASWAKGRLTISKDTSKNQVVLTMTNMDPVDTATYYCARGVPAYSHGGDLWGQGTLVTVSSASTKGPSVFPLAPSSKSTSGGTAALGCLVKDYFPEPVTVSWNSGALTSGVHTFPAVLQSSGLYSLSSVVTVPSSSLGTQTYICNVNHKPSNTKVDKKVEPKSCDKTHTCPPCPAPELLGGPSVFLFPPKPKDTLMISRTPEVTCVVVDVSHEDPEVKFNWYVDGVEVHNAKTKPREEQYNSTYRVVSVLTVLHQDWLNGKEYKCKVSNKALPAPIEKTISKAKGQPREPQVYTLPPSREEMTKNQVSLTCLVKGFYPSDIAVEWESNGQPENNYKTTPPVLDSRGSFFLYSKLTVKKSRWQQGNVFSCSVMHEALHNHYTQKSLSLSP
light: B1 light
notes: copies: 2 + 2
B13: M103205H795-P1544m/M103202L889-SK1 (antibody, human IgG1, kappa, name in EU numbering)
heavy: B2 heavy with D403R, K404G
light: B1 light
notes: copies: 2 + 2
B14: M103205H795-P1552m/M103202L889-SK1 (antibody, human IgG1, kappa, name in EU numbering)
heavy: B2 heavy with R313Q, G387R, D403R, K404G
light: B1 light
notes: copies: 2 + 2
B15: M103205H795-P1541m/M103202L889-SK1 (antibody, human IgG1, kappa, name in EU numbering)
heavy: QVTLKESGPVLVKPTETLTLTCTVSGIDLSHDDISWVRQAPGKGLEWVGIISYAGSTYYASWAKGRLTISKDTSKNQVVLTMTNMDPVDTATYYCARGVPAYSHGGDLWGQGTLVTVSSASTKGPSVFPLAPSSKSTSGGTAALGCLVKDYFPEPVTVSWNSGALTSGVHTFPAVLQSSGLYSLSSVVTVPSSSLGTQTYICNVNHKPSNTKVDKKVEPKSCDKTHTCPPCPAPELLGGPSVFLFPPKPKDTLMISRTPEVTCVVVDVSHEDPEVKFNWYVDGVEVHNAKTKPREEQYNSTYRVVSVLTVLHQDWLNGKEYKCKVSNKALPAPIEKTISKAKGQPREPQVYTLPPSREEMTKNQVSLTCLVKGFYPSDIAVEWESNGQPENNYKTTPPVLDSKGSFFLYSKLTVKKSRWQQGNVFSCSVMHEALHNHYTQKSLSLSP
light: B1 light
notes: copies: 2 + 2
B16: M103205H795-P1551m/M103202L889-SK1 (antibody, human IgG1, kappa, name in EU numbering)
heavy: B2 heavy with E390R, K404R, K415D
light: B1 light
notes: copies: 2 + 2
B17: M103205H795-P1553m/M103202L889-SK1 (antibody, human IgG1, kappa, name in EU numbering)
heavy: B2 heavy with R313Q, G387R, K404R
light: B1 light
notes: copies: 2 + 2
B18: M103205H795-P1538m/M103202L889-SK1 (antibody, human IgG1, kappa, name in EU numbering)
heavy: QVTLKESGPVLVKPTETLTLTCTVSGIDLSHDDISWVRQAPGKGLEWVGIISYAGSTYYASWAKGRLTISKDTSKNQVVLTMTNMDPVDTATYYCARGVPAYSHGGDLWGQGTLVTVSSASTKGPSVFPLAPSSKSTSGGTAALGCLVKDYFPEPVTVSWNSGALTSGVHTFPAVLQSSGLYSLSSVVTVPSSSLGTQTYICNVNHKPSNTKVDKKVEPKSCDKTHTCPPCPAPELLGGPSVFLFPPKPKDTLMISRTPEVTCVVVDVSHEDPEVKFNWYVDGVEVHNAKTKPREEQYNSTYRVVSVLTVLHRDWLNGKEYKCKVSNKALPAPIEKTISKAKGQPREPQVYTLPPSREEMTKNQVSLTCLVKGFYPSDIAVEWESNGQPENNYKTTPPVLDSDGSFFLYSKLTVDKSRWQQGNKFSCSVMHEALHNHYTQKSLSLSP
light: B1 light
notes: copies: 2 + 2
B19: M103205H795-P1555m/M103202L889-SK1 (antibody, human IgG1, kappa, name in EU numbering)
heavy: B2 heavy with R313Q, E390R, K404R
light: B1 light
notes: copies: 2 + 2
B20: M103205H795-P1542m/M103202L889-SK1 (antibody, human IgG1, kappa, name in EU numbering)
heavy: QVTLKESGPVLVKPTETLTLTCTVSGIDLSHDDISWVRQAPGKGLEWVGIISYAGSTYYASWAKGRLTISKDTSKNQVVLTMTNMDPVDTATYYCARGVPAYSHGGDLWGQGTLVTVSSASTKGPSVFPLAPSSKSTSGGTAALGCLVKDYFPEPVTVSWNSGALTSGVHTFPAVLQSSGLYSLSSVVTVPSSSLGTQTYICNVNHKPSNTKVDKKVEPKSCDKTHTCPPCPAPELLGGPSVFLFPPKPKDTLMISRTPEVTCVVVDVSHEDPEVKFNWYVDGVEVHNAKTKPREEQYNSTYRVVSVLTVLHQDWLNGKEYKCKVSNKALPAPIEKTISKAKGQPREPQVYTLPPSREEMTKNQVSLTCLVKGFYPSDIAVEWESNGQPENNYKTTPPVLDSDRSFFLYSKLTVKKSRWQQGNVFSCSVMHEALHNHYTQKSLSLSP
light: B1 light
notes: copies: 2 + 2
B21: M103205H795-P1550m/M103202L889-SK1 (antibody, human IgG1, kappa, name in EU numbering)
heavy: B2 heavy with E390R, D403R, K404G, K415D
light: B1 light
notes: copies: 2 + 2

The binders below were run against T1, soluble mouse FcγRII, His-tagged (assay: SPR, mouse FcγRII captured via His-tag, antigen-antibody complex injected, pH 7.4, 25 C).
Description: Regarding the produced Fc region variant-containing antibodies, binding assays between soluble mouse FcγRII and antigen-antibody complexes were performed using BIACORE® T200 (GE Healthcare). Soluble mouse FcγRII was produced in the form of a His-tagged molecule by a method known to those skilled in the art. An appropriate amount of an anti-His antibody was fixed onto Sensor chip CM5 (GE Healthcare) by the amine coupling method using a His capture kit (GE Healthcare) to capture mouse FcγRII. Next, an antibody-antigen complex and a running buffer (as a reference solution) were injected, and interaction was allowed to take place with the mouse FcγRII captured onto the sensor chip. 20 mM N-(2-Acetamido)-2-aminoethanesulfonic acid, 150 mM NaCl, 1.2 mM CaCl₂), and 0.05% (w/v) TWEEN® 20 at pH7.4 was used as the running buffer, and the respective buffer was also used to dilute the soluble mouse FcγRII. To regenerate the sensor chip, 10 mM glycine-HCl at pH1.5 was used. All measurements were carried out at 25° C. […] To calculate the parameters, the BIACORE® T100 Evaluation Software (GE Healthcare) was used.

Binder	biacore IC binding (relative, SG1 = 1.00)
B1	1.16 relative to SG1
B2	1.33 relative to SG1
B3	1.37 relative to SG1
B4	1.23 relative to SG1
B5	1.41 relative to SG1
B6	1.8 relative to SG1
B7	0.9 relative to SG1
B8	1.19 relative to SG1
B9	1.22 relative to SG1
B10	1.32 relative to SG1
B11	1.64 relative to SG1
B12	1.73 relative to SG1
B13	2.04 relative to SG1
B14	2.19 relative to SG1
B15	1.57 relative to SG1
B16	1.33 relative to SG1
B17	1.47 relative to SG1
B18	1.11 relative to SG1
B19	2.01 relative to SG1
B20	1.21 relative to SG1
B21	1.63 relative to SG1

The binders below were run against T2, human FcγRIIb constitutively expressed … (assay: cell-based or functional assay).

Binder	celluar uptake (labelled human latent myostatin taken up as antigen-antibody complex)
B1	2.05 relative to SG1 = 1.00
B2	4.85 relative to SG1 = 1.00
B3	2.3 relative to SG1 = 1.00
B4	3.86 relative to SG1 = 1.00
B5	5.1 relative to SG1 = 1.00
B6	7.73 relative to SG1 = 1.00
B7	3.2 relative to SG1 = 1.00
B8	3.7 relative to SG1 = 1.00
B9	2.03 relative to SG1 = 1.00
B10	2.77 relative to SG1 = 1.00
B11	4.42 relative to SG1 = 1.00
B12	7.64 relative to SG1 = 1.00
B13	7.66 relative to SG1 = 1.00
B14	4.44 relative to SG1 = 1.00
B15	7.17 relative to SG1 = 1.00
B16	2.91 relative to SG1 = 1.00
B17	2.86 relative to SG1 = 1.00
B18	1.84 relative to SG1 = 1.00
B19	3.71 relative to SG1 = 1.00
B20	3.32 relative to SG1 = 1.00
B21	6.43 relative to SG1 = 1.00
